T1: G9a and GLP (Homo sapiens, UniProt Q96KQ7+Q9H9B1)
T1 sequence (Q96KQ7 2-1210 limits assumed): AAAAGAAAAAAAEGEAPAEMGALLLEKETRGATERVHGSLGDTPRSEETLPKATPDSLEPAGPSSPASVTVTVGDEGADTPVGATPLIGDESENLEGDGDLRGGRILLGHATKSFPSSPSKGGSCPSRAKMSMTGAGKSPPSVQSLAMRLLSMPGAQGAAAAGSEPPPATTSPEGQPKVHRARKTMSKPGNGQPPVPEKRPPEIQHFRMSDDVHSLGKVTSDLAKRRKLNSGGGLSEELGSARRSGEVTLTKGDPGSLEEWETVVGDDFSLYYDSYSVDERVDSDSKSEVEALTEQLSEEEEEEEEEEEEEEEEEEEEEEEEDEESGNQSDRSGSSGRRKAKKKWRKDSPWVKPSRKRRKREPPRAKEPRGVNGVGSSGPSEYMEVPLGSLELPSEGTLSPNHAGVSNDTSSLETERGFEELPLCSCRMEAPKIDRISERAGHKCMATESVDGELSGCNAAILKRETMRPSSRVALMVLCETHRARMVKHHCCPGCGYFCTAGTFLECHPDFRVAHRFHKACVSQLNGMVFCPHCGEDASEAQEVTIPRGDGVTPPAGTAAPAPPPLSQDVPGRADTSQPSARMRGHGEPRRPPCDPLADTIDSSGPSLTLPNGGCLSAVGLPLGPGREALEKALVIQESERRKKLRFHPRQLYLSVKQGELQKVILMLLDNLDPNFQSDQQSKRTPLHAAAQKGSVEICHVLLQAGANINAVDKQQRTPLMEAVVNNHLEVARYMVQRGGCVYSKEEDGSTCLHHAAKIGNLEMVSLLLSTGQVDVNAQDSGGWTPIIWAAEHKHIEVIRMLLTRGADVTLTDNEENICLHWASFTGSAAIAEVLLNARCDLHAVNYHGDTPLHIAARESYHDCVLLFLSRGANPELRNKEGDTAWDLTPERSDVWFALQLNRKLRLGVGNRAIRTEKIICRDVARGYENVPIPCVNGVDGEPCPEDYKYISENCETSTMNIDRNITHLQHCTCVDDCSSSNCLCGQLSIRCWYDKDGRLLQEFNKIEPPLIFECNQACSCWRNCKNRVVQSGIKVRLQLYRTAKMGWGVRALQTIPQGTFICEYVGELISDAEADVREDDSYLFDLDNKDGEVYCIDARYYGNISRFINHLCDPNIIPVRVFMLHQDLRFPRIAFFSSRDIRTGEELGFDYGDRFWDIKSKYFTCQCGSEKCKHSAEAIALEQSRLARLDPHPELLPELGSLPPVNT
T1 sequence (Q9H9B1 2-1298 limits assumed): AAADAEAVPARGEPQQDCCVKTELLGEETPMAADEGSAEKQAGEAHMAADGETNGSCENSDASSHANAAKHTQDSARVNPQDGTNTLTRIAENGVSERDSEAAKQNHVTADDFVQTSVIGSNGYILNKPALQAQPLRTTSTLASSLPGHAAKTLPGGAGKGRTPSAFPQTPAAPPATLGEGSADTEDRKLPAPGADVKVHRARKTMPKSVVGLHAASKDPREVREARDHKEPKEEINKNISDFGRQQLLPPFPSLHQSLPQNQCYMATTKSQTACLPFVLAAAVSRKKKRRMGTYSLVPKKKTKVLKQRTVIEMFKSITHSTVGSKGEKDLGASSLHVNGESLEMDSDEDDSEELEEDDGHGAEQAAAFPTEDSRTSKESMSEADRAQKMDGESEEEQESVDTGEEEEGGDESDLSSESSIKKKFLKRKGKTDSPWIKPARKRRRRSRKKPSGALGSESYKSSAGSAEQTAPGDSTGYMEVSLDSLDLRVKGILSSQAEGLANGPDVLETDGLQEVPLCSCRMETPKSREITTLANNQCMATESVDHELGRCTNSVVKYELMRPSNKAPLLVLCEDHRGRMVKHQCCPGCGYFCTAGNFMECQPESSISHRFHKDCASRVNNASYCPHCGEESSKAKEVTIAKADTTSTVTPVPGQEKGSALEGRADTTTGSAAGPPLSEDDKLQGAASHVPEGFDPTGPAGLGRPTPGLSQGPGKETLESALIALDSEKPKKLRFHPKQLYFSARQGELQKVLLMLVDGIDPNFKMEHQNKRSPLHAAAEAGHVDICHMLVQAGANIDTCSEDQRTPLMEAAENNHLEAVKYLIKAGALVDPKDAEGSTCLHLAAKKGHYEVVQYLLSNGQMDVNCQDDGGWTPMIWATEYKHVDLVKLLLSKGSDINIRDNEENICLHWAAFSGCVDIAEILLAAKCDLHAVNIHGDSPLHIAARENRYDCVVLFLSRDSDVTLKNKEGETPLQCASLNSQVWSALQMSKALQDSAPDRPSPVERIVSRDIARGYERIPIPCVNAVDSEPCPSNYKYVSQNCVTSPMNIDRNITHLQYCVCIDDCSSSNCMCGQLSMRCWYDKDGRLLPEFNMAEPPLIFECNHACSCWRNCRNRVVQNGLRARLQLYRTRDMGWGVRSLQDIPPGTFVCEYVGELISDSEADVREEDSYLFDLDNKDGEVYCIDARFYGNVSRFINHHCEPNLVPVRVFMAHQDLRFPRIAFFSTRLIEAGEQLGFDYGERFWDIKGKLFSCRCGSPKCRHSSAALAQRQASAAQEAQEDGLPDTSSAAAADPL


How the values were obtained:
3×MBT domain of L3MBTL1 = experiment: Triple SILAC pull-down, 3xMBT/3xMBTD355N ratio (cytoplasmic, nuclear and chromatin fractions of 293T cells); type: binding, human; settings: SILAC ratio, pull-down 3xMBT vs 3xMBTD355N; for 3xMBT/D355N UNC Heavy: experiment with UNC0638 in heavy SILAC media; for 3xMBT/D355N UNC Light: experiment with UNC0638 in light SILAC media;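 for all read-outs here: proteins quantified with MaxQuant, requiring at least two unique peptides and quantification in both label directions, normalized to the mean of proteins from a digested loading control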
G9a and GLP = target: T1, G9a and GLP; experiment: Triple SILAC pull-down after UNC0638 treatment of 293T cells, DMSO/UNC0638 ratio of protein captured by 3×MBT; type: cell-based; design: endogenous in cells; host or cells: HEK 293T; settings: for Relative to UNC0638 UNC Heavy / Relative to UNC0638 UNC Light: SILAC ratio DMSO/UNC0638 of protein pulled down with 3xMBT; for Relative to UNC0638 UNC Heavy: UNC0638 in heavy SILAC media; for Relative to UNC0638 UNC Light: UNC0638 in light SILAC media; for Relative to UNC0638 Average: average of UNC Light and UNC Heavy experiments;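 for all read-outs here: mass spectrometry (Q-Exactive) SILAC quantitation, DMSO/UNC0638 ratio computed after subtracting 3×MBTD355N mutant pull-down background, only proteins with at least twofold 3×MBT over mutant signal considered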

Relative to UNC0638 UNC Heavy (G9a and GLP) [log base 2] | Relative to UNC0638 UNC Light (G9a and GLP) [log base 2] | Relative to UNC0638 Average (G9a and GLP) [log base 2] | Molecule | 3xMBT/D355N UNC Heavy (3×MBT domain of L3MBTL1) [log base 2] | 3xMBT/D355N UNC Light (3×MBT domain of L3MBTL1) [log base 2]
−0.03 | 0.39 | 0.18 | AMOT (protein, UniProt Q4VCS5 1-1084, looked up) Angiomotin: MRNSEEQPSGGTTVLQRLLQEQLRYGNPSENRSLLAIHQQATGNGPPFPSGSGNPGPQSDVLSPQDHHQQLVAHAARQEPQGQEIQSENLIMEKQLSPRMQNNEELPTYEEAKVQSQYFRGQQHASVGAAFYVTGVTNQKMRTEGRPSVQRLNPGKMHQDEGLRDLKQGHVRSLSERLMQMSLATSGVKAHPPVTSAPLSPPQPNDLYKNPTSSSEFYKAQGPLPNQHSLKGMEHRGPPPEYPFKGMPPQSVVCKPQEPGHFYSEHRLNQPGRTEGQLMRYQHPPEYGAARPAQDISLPLSARNSQPHSPTSSLTSGGSLPLLQSPPSTRLSPARHPLVPNQGDHSAHLPRPQQHFLPNQAHQGDHYRLSQPGLSQQQQQQQQQHHHHHHHQQQQQQQPQQQPGEAYSAMPRAQPSSASYQPVPADPFAIVSRAQQMVEILSDENRNLRQELEGCYEKVARLQKVETEIQRVSEAYENLVKSSSKREALEKAMRNKLEGEIRRMHDFNRDLRERLETANKQLAEKEYEGSEDTRKTISQLFAKNKESQREKEKLEAELATARSTNEDQRRHIEIRDQALSNAQAKVVKLEEELKKKQVYVDKVEKMQQALVQLQAACEKREQLEHRLRTRLERELESLRIQQRQGNCQPTNVSEYNAAALMELLREKEERILALEADMTKWEQKYLEENVMRHFALDAAATVAAQRDTTVISHSPNTSYDTALEARIQKEEEEILMANKRCLDMEGRIKTLHAQIIEKDAMIKVLQQRSRKEPSKTEQLSCMRPAKSLMSISNAGSGLLSHSSTLTGSPIMEEKRDDKSWKGSLGILLGGDYRAEYVPSTPSPVPPSTPLLSAHSKTGSRDCSTQTERGTESNKTAAVAPISVPAPVAAAATAAAITATAATITTTMVAAAPVAVAAAAAPAAAAAPSPATAAATAAAVSPAAAGQIPAAASVASAAAVAPSAAAAAAVQVAPAAPAPVPAPALVPVPAPAAAQASAPAQTQAPTSAPAVAPTPAPTPTPAVAQAEVPASPATGPGPHRLSIPSLTCNPDKTDGPVFHSNTLERKTPIQILGQEPDAEMVEYLI | 2.95 | 2.44
0.01 | 0.35 | 0.18 | DAZAP1 (protein, UniProt Q96EP5 1-407, looked up) DAZ-associated protein 1: MNNSGADEIGKLFVGGLDWSTTQETLRSYFSQYGEVVDCVIMKDKTTNQSRGFGFVKFKDPNCVGTVLASRPHTLDGRNIDPKPCTPRGMQPERTRPKEGWQKGPRSDNSKSNKIFVGGIPHNCGETELREYFKKFGVVTEVVMIYDAEKQRPRGFGFITFEDEQSVDQAVNMHFHDIMGKKVEVKRAEPRDSKSQAPGQPGASQWGSRVVPNAANGWAGQPPPTWQQGYGPQGMWVPAGQAIGGYGPPPAGRGAPPPPPPFTSYIVSTPPGGFPPPQGFPQGYGAPPQFSFGYGPPPPPPDQFAPPGVPPPPATPGAAPLAFPPPPSQAAPDMSKPPTAQPDFPYGQYAGYGQDLSGFGQGFSDPSQQPPSYGGPSVPGSGGPPAGGSGFGRGQNHNVQGFHPYRR | 2.92 | 2.10
0.30 | 0.06 | 0.18 | CPSF3 (protein, UniProt Q9UKF6 2-684, looked up) Cleavage and polyadenylation …: SAIPAEESDQLLIRPLGAGQEVGRSCIILEFKGRKIMLDCGIHPGLEGMDALPYIDLIDPAEIDLLLISHFHLDHCGALPWFLQKTSFKGRTFMTHATKAIYRWLLSDYVKVSNISADDMLYTETDLEESMDKIETINFHEVKEVAGIKFWCYHAGHVLGAAMFMIEIAGVKLLYTGDFSRQEDRHLMAAEIPNIKPDILIIESTYGTHIHEKREEREARFCNTVHDIVNRGGRGLIPVFALGRAQELLLILDEYWQNHPELHDIPIYYASSLAKKCMAVYQTYVNAMNDKIRKQININNPFVFKHISNLKSMDHFDDIGPSVVMASPGMMQSGLSRELFESWCTDKRNGVIIAGYCVEGTLAKHIMSEPEEITTMSGQKLPLKMSVDYISFSAHTDYQQTSEFIRALKPPHVILVHGEQNEMARLKAALIREYEDNDEVHIEVHNPRNTEAVTLNFRGEKLAKVMGFLADKKPEQGQRVSGILVKRNFNYHILSPCDLSNYTDLAMSTVKQTQAIPYTGPFNLLCYQLQKLTGDVEELEIQEKPALKVFKNITVIQEPGMVVLEWLANPSNDMYADTVTTVILEVQSNPKIRKGAVQKVSKKLEMHVYSKRLEIMLQDIFGEDCVSVKDDSILSVTVDGKTANLNLETRTVECEEGSEDDESLREMVELAAQRLYEALTPVH | 3.39 | 0.51
0.12 | 0.24 | 0.18 | HNRNPR (protein, UniProt O43390 2-633, looked up) Heterogeneous nuclear …: ANQVNGNAVQLKEEEEPMDTSSVTHTEHYKTLIEAGLPQKVAERLDEIFQTGLVAYVDLDERAIDALREFNEEGALSVLQQFKESDLSHVQNKSAFLCGVMKTYRQREKQGSKVQESTKGPDEAKIKALLERTGYTLDVTTGQRKYGGPPPDSVYSGVQPGIGTEVFVGKIPRDLYEDELVPLFEKAGPIWDLRLMMDPLSGQNRGYAFITFCGKEAAQEAVKLCDSYEIRPGKHLGVCISVANNRLFVGSIPKNKTKENILEEFSKVTEGLVDVILYHQPDDKKKNRGFCFLEYEDHKSAAQARRRLMSGKVKVWGNVVTVEWADPVEEPDPEVMAKVKVLFVRNLATTVTEEILEKSFSEFGKLERVKKLKDYAFVHFEDRGAAVKAMDEMNGKEIEGEEIEIVLAKPPDKKRKERQAARQASRSTAYEDYYYHPPPRMPPPIRGRGRGGGRGGYGYPPDYYGYEDYYDDYYGYDYHDYRGGYEDPYYGYDDGYAVRGRGGGRGGRGAPPPPRGRGAPPPRGRAGYSQRGAPLGPPRGSRGGRGGPAQQQRGRGSRGSRGNRGGNVGGKRKADGYNQPDSKRRQTNNQQNWGSQPIAQQPLQQGGDYSGNYGYNNDNQEFYQDTYGQQWK | 3.20 | 3.60

Source: patent US20140274782A1, “AFFINITY REAGENTS AND METHODS FOR DETECTION, PURIFICATION, AND PROTEOMIC ANALYSIS OF METHYLATED PROTEINS” (The Board of Trustees of the Leland Stanford Junior …, priority 2013, published 2014)
